The source of these data is EP2105501A1 (Immatics Biotechnologies GmbH, dated 2009).

For this test, the target named is T1, HLA-A*0205 (human).
T1 construct: Native HLA immunoprecipitated from shock-frozen tumor tissue
The test is described as follows: HLA immunoprecipitation from glioblastoma tissue, peptide elution, ESI-LCMS/MS.

B1: PTP-001 (peptide)
peptide: ALTTLMHQL
notes: Natural HLA ligand eluted from glioblastoma tissue
Regarding B1, the binding result is reported as “binds”.
